Data from US20210371526A1 (AMPSOURCE BIOPHARMA SHANGHAI, published 2021).

Tests used:
[1] = target: T1, Mucin1 on tumor cells (MCF-7, BT-549, HCC70, T-47D, HCC1954, SK-OV-3, Hela, HT-29) (human, UniProt P15941 24-1255); test: cell-based or functional assay
[2] = target: T1, Mucin1 on tumor cells (MCF-7, BT-549, …); test: flow cytometry on SK-OV-3 cells
[3] = target: T1, Mucin1 on tumor cells (MCF-7, BT-549, …); test: flow cytometry on HCC70 cells
[4] = target: T1, Mucin1 on tumor cells (MCF-7, BT-549, …); test: flow cytometry on BT-549 cells
[5] = target: T1, Mucin1 on tumor cells (MCF-7, BT-549, …); test: flow cytometry on Hela cells
[6] = target: T1, Mucin1 on tumor cells (MCF-7, BT-549, …); test: flow cytometry on T-47D cells
[7] = target: T1, Mucin1 on tumor cells (MCF-7, BT-549, …); test: cell-based or functional assay; remark: listed apart in the source
[8] = target: T1, Mucin1 on tumor cells (MCF-7, BT-549, …); test: flow cytometry on HCC1954 cells

B1: Bispecific antibody AB11K (Anti-Mucin1×CD3, scFv1-scFv2-Fc) (bispecific antibody)
chain: EVQLVESGGGLVQPGGSMRLSCVASGFPFSNYWMNWVRQAPGKGLEWVGEIRLKSNNYTTHYAESVKGRFTISRDDSKNSLYLQMNSLKTEDTAVYYCTRHYYFDYWGQGTLVTVSSGGGGSGGGGSGGGGSDIVMTQSPLSNPVTPGEPASISCRSSKSLLHSNGITYFFWYLQKPGQSPQLLIYQMSNLASGVPDRFSGSGSGTDFTLRISRVEAEDVGVYYCAQNLELPPTFGQGTKVEIKGGGGGGSGGGGSGGGGSSSSSKAPPPSEVQLLESGGGLVQPGGSLKLSCAASGFTFNTYAMNWVRQAPGKGLEWVARIRSKYNNYATYYADSVKDRFTISRDDSKNTAYLQMNNLKTEDTAVYYCVRHGNFGNSYVSWFAYWGQGTLVTVSSGGGGSGGGGSGGGGSELVVTQEPSLTVSPGGTVTLTCRSSTGAVTTSNYANWVQQKPGQAPRGLIGGTNKRAPGTPARFSGSLLGGKAALTLSGVQPEDEAEYYCALWYSNLWVFGGGTKLTVLDKTHTCPPCPAPEAAGGPSVFLFPPKPKDQLMISRTPEVTCVVVDVSHEDPEVKFNWYVDGVEVHNAKTKPREEQYASTYRVVSVLTVLHQDWLNGKEYKCKVSNKALPASIEKTISKAKGQPREPQVYTLPPSRDELTKNQVSLTCLVKGFYPSDIAVEWESNGQPENNYKTTPPVLDSDGSFFLYSKLTVDKSRWQQGNVFSCSVLHEALHNHYTQKSLSLSPG
- PBMC killing EC50, BT-549 cells [1]: 0.956 nM
- PBMC killing EC50, HCC70 cells [1]: 0.595 nM
- PBMC killing EC50, HCC1954 cells [1]: 1.89 nM
- PBMC killing EC50, HT-29 cells [1]: 9.55 nM
- PBMC killing EC50, Hela cells [1]: 4.81 nM
- PBMC killing EC50, MCF-7 cells [1]: 0.131 nM
- T cell killing EC50, BT-549 cells [1]: 0.141 nM
- T cell killing EC50, HCC70 cells [1]: 0.185 nM
- T cell killing EC50, HCC1954 cells [1]: 0.281 nM
- T cell killing EC50, HT-29 cells [1]: 1.58 nM
- T cell killing EC50, Hela cells [1]: 0.278 nM
- T cell killing EC50, MCF-7 cells [1]: 0.153 nM
- T cell killing EC50, SK-OV-3 cells [1]: 0.689 nM
- T cell killing EC50, T-47D cells [1]: 0.0845 nM
- EC50 [2]: 93.7 nM
- EC50 [3]: 59 nM
- EC50 [4]: 287 nM
- EC50 [5]: 5.51 nM
- EC50 [6]: 5.05 nM
- T cell activation EC50 (Jurkat-NFAT luciferase) with BT-549 cells [7]: 10.5 nM
- T cell activation EC50 (Jurkat-NFAT luciferase) with HCC70 cells [7]: 3.02 nM
- T cell activation EC50 (Jurkat-NFAT luciferase) with HCC1954 cells [7]: 5.6 nM
- T cell activation EC50 (Jurkat-NFAT luciferase) with HT-29 cells [7]: 6.71 nM
- T cell activation EC50 (Jurkat-NFAT luciferase) with Hela cells [7]: 7.24 nM
- T cell activation EC50 (Jurkat-NFAT luciferase) with MCF-7 cells [7]: 14.2 nM
- T cell activation EC50 (Jurkat-NFAT luciferase) with SK-OV-3 cells [7]: 10.4 nM
- T cell activation EC50 (Jurkat-NFAT luciferase) with T-47D cells [7]: 0.629 nM
- EC50 [8]: 81.2 nM
